Our source for the reduction in inhibitory activity during cell-cell transmission (293-T donor to A3.01-CCR5) against free virus infection of A3.01-CCR5 (fold change IC50) and median fold reduction for T-20 in cell-cell transmission (293-T donor to A3.01-CCR5) against free virus infection values is publication PMC4497647.

In assay [1] the target is HIV-1 envelope (Env) of strain BG505 (subtype A) (HIV-1 subtype A) (UniProt Q2N0S6).
Assay [2] deals with HIV-1 envelope (Env) of strain DH123 (subtype B) (HIV-1 subtype B).
The target of assay [3] is HIV-1 envelope (Env) of strain ZM109 (subtype C) (HIV-1 subtype C).
In assay [4] the target is HIV-1 envelope (Env) of strain ZM214 (subtype C) (HIV-1 subtype C).
The target in assay [5] is HIV-1 envelope (Env) of strain REJO (subtype B) (HIV-1 subtype B).
In assay [6] the target is HIV-1 envelope (Env) of strain SF162 (subtype B) (HIV-1 subtype B) (UniProt P19550).
Assay [7] addresses HIV-1 envelope (Env) of strain THRO (subtype B) (HIV-1 subtype B).
Assay [8] addresses HIV-1 envelope (Env) of strain JR-FL (subtype B) (HIV-1 subtype B) (UniProt Q75760).
Assay [9] has as its target HIV-1 envelope (Env) of strain JR-CSF (subtype B) (HIV-1 subtype B) (UniProt P20871).
Assay [10] addresses HIV-1 envelope (Env) of strain ZM53 (subtype C) (HIV-1 subtype C).
In assay [11] the target is HIV-1 envelope (Env) of strain PVO.4 (subtype B) (HIV-1 subtype B).

Consider fusion inhibitor T-20 (peptide), for which the reduction in inhibitory activity during cell-cell transmission (293-T donor to A3.01-CCR5) against free virus infection of A3.01-CCR5 (fold change IC50) in assay [1], in [2], in [3], in assay [5], in assay [6] and in assay [8] was less than 10 fold each time. Also, the reduction in inhibitory activity during cell-cell transmission (293-T donor to A3.01-CCR5) against free virus infection of A3.01-CCR5 (fold change IC50) in assay [9], in assay [10] and in assay [11] was less than 10 fold in each case. For the same substance, the figures for the median fold reduction for T-20 in cell-cell transmission (293-T donor to A3.01-CCR5) against free virus infection in assay [4] and in assay [7] were 5.3 fold and 1.6 fold, respectively.
